As usually defined, the stoichiometry N is a count of units in the complex or per binding partner.

For data set [1], the target named is T1, RNase T (Escherichia coli (JM109 or K-12), UniProt P30014 1-215).
T1 sequence: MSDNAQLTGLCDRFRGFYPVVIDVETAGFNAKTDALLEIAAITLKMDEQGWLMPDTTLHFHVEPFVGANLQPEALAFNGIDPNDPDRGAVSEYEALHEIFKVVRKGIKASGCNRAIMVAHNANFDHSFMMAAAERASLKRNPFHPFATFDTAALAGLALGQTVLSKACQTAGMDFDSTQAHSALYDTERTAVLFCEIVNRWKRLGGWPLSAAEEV
The data set can be described thus: EMSA; 30 mM EDTA, 10 mM EGTA; EMSA: 20 nM DNA, 0/5/50 uM protein, 100 mM NaCl, 30 mM EDTA, 10 mM EGTA, 50 mM Tris-HCl pH 7.0, 20 min, room temperature. The conditions noted are these: protein: recombinant, tags: N-terminal His (pET-28a), chain copies: 2, label: 5'-32P, hairpin. For orientation: Mobility shift assays separate free from complexed probe on a gel.

Data set [2] has as its target T1, RNase T. The data set can be described thus: X-ray crystallography; 2 Mg2+ in active site; one DNA per protomer; 1.9 A; EMSA: 20 nM DNA, 0/5/50 uM protein, 100 mM NaCl, 30 mM EDTA, 10 mM EGTA, 50 mM Tris-HCl pH 7.0, 20 min, room temperature. The conditions noted are these: protein: recombinant; tags: N-terminal His (pET-28a); chain copies: 2; Y structure (5' and 3' unpaired tails).

Data set [3] concerns the molecule itself. The data set can be described thus: dynamic light scattering; purified recombinant proteins in solution; conditions not given.

With GGCCCTCTTTAGGGCCTTAA (structured_DNA) [Stem-loop duplex DNA, 4-nt 3' overhang], the binding result in the data set with RNase T [1] (3' overhang 4 nt) is recorded as “binds”.

GGCCCTCTTTAGGGCCAAGGGTTTAA (structured_DNA) [Stem-loop duplex DNA, 10-nt 3' overhang]: the binding result with RNase T [1] (3' overhang 10 nt) is given as “binds”.

In the case of TTGGCCCTCTTTAGGGCCCC (structured_DNA) [Y-structured DNA, 3'-CC (crystal)], the binding result with RNase T [2] is listed as “binds”.

With GGCCCTCTTTAGGGCCTTATAA (structured_DNA) [Stem-loop duplex DNA, 6-nt 3' overhang], in the data set with RNase T [1] (3' overhang 6 nt), the binding result was “binds”.

B1: RNase T (enzyme, E. coli, UniProt P30014 1-215, looked up)
chain: MSDNAQLTGLCDRFRGFYPVVIDVETAGFNAKTDALLEIAAITLKMDEQGWLMPDTTLHFHVEPFVGANLQPEALAFNGIDPNDPDRGAVSEYEALHEIFKVVRKGIKASGCNRAIMVAHNANFDHSFMMAAAERASLKRNPFHPFATFDTAALAGLALGQTVLSKACQTAGMDFDSTQAHSALYDTERTAVLFCEIVNRWKRLGGWPLSAAEEV
notes: RNase T (rnt gene) of E. coli, full-length gene amplified from genomic DNA of JM109 or K-12 strains, cloned into NdeI/XhoI sites of pET-28a; Wild-type RNase T was used for crystallisation; also called rnt; DnaQ-like exonuclease RNase T; source: E. coli BL21-CodonPlus(DE3)-RIPL, purified (HiTrap TALON, HiTrap Heparin, Superdex 75)
On to B1, for which the “stoichiometry N” value in data set [3] is 2.

Values taken from article PMC3942315, “Structural Insights Into DNA Repair by RNase T—An Exonuclease Processing 3′ End of Structured DNA in Repair Pathways” (PLoS Biology, 2014).
